Assay results: PMC2386126, “The Mycobacterium tuberculosis Rv2540c DNA sequence encodes a bifunctional chorismate synthase” (BMC Biochemistry, 2008)

Target: the molecule itself
Assay: SEC

B1: chorismate synthase from M. tuberculosis (enzyme)
chain: MLRWITAGESHGRALVAVVEGMVAGVHVTSADIADQLARRRLGYGRGARMTFERDAVTVLSGIRHGSTLGGPIAIEIGNTEWPKWETVMAADPVDPAELADVARNAPLTRPRPGHADYAGMLKYGFDDARPVLERASARETAARVAAGTVARAFLRQALGVEVLSHVISIGASAPYEGPPPRAEDLPAIDASPVRAYDKAAEADMIAQIEAAKKDGDTLGGVVEAVALGLPVGLGSFTSGDHRLDSQLAAAVMGIQAIKGVEIGDGFQTARRRGSRAHDEMYPGPDGVVRSTNRAGGLEGGMTNGQPLRVRAAMKPISTVPRALATVDLATGDEAVAIHQRSDVCAVPAAGVVVETMVALVLARAALEKFGGDSLAETQRNIAAYQRSVADREAPAARVSG
notes: also called MtCS; CS
  stoichiometry N: 2
